These results are taken from publication PMC4205155.

This series addresses T1, CREB B-ZIP DNA binding domain (UniProt P16220 269-327).
T1 sequence: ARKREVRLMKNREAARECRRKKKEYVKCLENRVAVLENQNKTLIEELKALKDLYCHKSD
Kind of series: EMSA. A general note: In EMSA bound probe runs differently from free probe, usually more slowly.

B1: CRE 28-mer unmethylated (U) (dsDNA)
DNA 1: GTCAGTCAGATGACGTCATATCGGTCAG
DNA 2: CTGACCGATATGACGTCATCTGACTGAC
In the case of B1, the binding result is recorded as “binds”.
